Laboratory results published in publication PMC3229523, “Identification of Lactoferricin B Intracellular Targets Using an Escherichia coli Proteome Chip” (PLoS ONE, 2011).
Ends that are not written are not given here.

Key:
Assay in all cases: fluorescence polarisation; 100 nM DyLight 549-labeled LfcinB as tracer; two-fold serial dilution of protein from 0.4 µM to 0.025 µM in PBS, 0.005% BSA, 0.01% Triton X-100; room temperature, 1 h; compared with BSA
Conditions in all cases: both partners purified
[1] = biological target: T1, adenylate cyclase CyaA (E. coli K-12, UniProt P00936 1-848)
T1 construct: CyaA, adenylate cyclase, E. coli K-12
T1 sequence (looked up): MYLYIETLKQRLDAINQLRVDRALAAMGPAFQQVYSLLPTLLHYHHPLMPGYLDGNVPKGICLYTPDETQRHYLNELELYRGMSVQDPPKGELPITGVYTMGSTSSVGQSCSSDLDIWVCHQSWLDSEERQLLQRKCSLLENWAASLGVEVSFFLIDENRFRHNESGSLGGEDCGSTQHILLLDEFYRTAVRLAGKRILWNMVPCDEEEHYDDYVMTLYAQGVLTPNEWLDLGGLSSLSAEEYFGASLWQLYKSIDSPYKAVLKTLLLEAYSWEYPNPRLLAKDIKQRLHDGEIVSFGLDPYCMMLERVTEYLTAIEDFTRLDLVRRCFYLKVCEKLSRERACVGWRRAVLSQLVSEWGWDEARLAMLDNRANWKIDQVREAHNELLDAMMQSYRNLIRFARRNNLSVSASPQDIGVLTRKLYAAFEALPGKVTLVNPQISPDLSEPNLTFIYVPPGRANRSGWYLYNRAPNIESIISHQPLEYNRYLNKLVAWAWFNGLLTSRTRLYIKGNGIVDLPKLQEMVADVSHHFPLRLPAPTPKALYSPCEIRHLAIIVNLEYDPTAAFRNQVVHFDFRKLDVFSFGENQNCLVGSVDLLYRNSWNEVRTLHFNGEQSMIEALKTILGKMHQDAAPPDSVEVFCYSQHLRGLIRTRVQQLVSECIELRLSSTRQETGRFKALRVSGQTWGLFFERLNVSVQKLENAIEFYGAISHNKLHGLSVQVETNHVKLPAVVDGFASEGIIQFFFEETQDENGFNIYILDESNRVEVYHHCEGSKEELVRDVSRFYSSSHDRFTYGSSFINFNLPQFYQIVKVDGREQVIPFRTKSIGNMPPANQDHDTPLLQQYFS

[2] = biological target: T2, HyaF (E. coli K-12, UniProt P19932 1-285)
T2 construct: HyaF, E. coli K-12
T2 sequence (looked up): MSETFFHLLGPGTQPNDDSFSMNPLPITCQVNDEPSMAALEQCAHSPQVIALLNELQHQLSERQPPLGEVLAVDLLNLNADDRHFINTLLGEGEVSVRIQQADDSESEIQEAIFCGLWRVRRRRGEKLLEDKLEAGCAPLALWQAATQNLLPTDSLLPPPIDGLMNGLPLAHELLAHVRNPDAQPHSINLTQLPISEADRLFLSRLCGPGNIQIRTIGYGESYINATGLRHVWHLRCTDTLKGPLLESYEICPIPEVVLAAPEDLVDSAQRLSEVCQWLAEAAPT

[3] = biological target: T3, MetL (E. coli K-12, UniProt P00562 1-810)
T3 construct: MetL, E. coli K-12
T3 sequence (looked up): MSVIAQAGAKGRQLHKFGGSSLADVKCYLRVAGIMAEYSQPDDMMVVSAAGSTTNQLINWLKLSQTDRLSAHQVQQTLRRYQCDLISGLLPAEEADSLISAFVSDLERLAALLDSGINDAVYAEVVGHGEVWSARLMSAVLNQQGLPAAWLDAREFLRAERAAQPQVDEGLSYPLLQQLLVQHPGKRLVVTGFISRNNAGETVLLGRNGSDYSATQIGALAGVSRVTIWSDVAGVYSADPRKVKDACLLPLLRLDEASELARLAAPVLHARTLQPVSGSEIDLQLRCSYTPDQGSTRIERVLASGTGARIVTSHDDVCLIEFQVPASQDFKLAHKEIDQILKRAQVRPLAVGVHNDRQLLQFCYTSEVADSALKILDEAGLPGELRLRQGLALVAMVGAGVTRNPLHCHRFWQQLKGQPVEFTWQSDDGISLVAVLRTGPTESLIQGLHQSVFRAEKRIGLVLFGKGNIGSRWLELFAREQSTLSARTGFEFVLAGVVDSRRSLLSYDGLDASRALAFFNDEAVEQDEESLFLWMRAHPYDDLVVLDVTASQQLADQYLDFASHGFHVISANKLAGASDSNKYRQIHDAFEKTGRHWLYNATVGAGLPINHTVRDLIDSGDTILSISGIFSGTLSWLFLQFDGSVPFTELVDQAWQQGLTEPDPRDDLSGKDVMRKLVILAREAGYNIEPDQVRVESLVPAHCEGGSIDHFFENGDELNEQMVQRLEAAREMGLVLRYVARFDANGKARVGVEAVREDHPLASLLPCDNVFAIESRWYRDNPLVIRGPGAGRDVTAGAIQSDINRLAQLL

[4] = biological target: T4, ribonucleoside-diphosphate reductase 2, β subunit (E. coli K-12, UniProt P37146 1-319)
T4 construct: NrdF, ribonucleoside-diphosphate reductase 2, β subunit, E. coli K-12; no measurement of the oligomer here; also called NrdF
T4 sequence (P37146 whole entry): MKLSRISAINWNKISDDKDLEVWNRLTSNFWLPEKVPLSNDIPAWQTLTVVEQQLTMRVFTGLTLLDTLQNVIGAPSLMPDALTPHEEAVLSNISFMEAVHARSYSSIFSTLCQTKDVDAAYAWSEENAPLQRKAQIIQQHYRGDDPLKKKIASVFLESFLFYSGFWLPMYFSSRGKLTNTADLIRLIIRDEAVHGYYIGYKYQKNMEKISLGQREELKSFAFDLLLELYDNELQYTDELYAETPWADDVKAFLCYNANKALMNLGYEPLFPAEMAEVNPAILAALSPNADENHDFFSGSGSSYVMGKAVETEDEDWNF

Measured: binding result

B1: DyLight 549-labeled Lactoferricin B (peptide, UniProt P24627 36-60, looked up)
peptide: FKCRRWQWRMKKLGAPSITCVRRAF
modifications: ends and bridges not checked; also: DyLight 549 label, sites not given here
notes: lactoferricin B (LfcinB), cationic antimicrobial peptide of 25 amino acids; also called fluorescence-labeled LfcinB; LfcinB; source: bought: Kelowna Inc; labelled with DyLight 549-NHS ester, desalted
binds: all assays above
